According to publication PMC6348423, “Rapid Mapping of Protein Interactions Using Tag‐Transfer Photocrosslinkers” (Angewandte Chemie (International Ed. in English), 2018):
Ends that are not written are not given here. Peptide text beside a SMILES is read from it. * marks the point of attachment. MTS‑TFMD = trifluoromethyl phenyl diazirine photocrosslinker tag, disulfide-linked to Cys via MTS; MTS‑diazirine = alkyl diazirine tag, disulfide-linked to Cys via MTS; X1 = FC(F)(F)C1(c2ccc(CS*)cc2)N=N1; X2 = CC1(CCS*)N=N1

T1: MCL-1 (human, UniProt Q07820 1-350)
T1 chain: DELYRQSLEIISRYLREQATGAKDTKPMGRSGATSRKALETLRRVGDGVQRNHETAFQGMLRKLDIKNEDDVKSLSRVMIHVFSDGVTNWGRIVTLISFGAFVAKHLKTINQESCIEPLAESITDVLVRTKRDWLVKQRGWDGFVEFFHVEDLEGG


The molecules below were run against T2, MCL-1 (Homo sapiens, UniProt Q07820) (assay: Photo-crosslinking of labelled BID80-102 peptides to MCL-1, SDS-PAGE band intensity). Settings: 20 μM labelled peptide + 20 μM MCL-1, TBS pH 7.6; 365 nm UV LED, 1 min; SDS-PAGE band intensity of crosslinked vs non-crosslinked MCL-1; value ± SD of three repeats.
T2 construct: made in house
Method: Cross-linking experiments
For all irradiation methods, samples were prepared in the following way. For crosslinking of MCL-1/BID80-102, 20 μL of a solution containing MTS-diazirine or MTS-TFMD labelled BID80-102 peptide (20 μM) and MCL-1 (20 μM) in buffer 50 mM Tris-HCl, 150 mM NaCl (TBS) pH 7.6 was prepared. […]
This was then placed under a covered LF-206.LS 6 W 365 nm lamp (Uvitec) at a distance of 12 mm from the source for different times up to 30 min. For UV LED chip experiments, acrylic chip chambers were washed with TBS pH 7.6 buffer and 33 µL of sample was added. These were then clamped into the chip holder and irradiated with the 365 nm LED for up to 30 s. A pipette was used to remove the sample from the chip via the lower filling hole. For UV LED tube experiments, 30-130 µL of sample was added to a thin-walled PCR tube and placed inside a 0.5 mL microfuge tube which itself was in a 1.5 mL microfuge tube that had been wrapped in aluminium foil (to reflect the UV irradiation within the containers). Samples were irradiated with the 365 nm LED for 30 s. To crosslink MCL-1 BID80-102, samples were irradiated using this apparatus for 1 min.
Separation and enrichment of cross-linked products
To separate and/or enrich crosslinked samples three methods were used as described in the main text.
Table S1: Affinity (EC50) of labelled BID80-102 peptides to MCL-1 as determined by competition fluorescence anisotropy assay. Crosslinking efficiency of labelled BID80-102 peptides to MCL-1 based on the SDS-PAGE band intensity of crosslinked and non-crosslinked […]
The values and standard deviations are results of three repeats. n.d = not determined as binding was too weak to enable an accurate fit to be obtained.
BID peptide EC50 for affinity to MCL-1 (nM) Crosslinked Mcl-1 (%)

T2 sequence (Q07820 whole entry): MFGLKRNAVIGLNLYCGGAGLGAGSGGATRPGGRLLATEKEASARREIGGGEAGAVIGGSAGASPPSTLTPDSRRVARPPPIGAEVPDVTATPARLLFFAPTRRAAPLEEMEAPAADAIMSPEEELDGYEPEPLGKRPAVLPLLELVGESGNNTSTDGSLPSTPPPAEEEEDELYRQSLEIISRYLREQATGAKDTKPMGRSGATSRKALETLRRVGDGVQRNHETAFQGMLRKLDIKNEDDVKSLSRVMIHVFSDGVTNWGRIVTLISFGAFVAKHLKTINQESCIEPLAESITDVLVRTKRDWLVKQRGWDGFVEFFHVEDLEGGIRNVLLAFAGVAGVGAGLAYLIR

Row | Molecule | Crosslinked Mcl-1 (crosslinking efficiency) [%]
1 | CC[C@H](C)[C@H](NC(=O)[C@H](CC(N)=O)NC(=O)[C@H](CCCNC(=N)N)NC(=O)[C@@H](NC(=O)[C@@H](NC(=O)[C@H](CC(=O)O)NC(=O)[C@H](CCC(=O)O)NC(C)=O)[C@@H](C)CC)[C@@H](C)CC)C(=O)N[C@@H](C)C(=O)N[C@@H](CCCNC(=N)N)C(=O)N[C@@H](Cc1c[nH]cn1)C(=O)N[C@@H](CC(C)C)C(=O)N[C@@H](C)C(=O)N[C@@H](CCC(N)=O)C(=O)N[C@H](C(=O)NCC(=O)N[C@@H](CC(=O)O)C(=O)N[C@@H](CO)C(=O)N[C@@H](CCSC)C(=O)N[C@@H](CC(=O)O)C(=O)N[C@@H](CCCNC(=N)N)C(=O)N[C@@H](CO)C(=O)N[C@H](C(=O)N[C@@H](Cc1c[nH]c2ccccc12)C(N)=O)[C@@H](C)CC)C(C)C [WT, reference compound] | 0

Same assay, conditions: 20 μM labelled peptide + 20 μM MCL-1, TBS pH 7.6; 365 nm UV LED, 1 min; SDS-PAGE band intensity of crosslinked vs non-crosslinked MCL-1; value ± SD of three repeats; SD

Row | Molecule | Crosslinked Mcl-1 (crosslinking efficiency) [%]
2 | CC[C@H](C)[C@H](NC(=O)[C@H](CC(N)=O)NC(=O)[C@H](CCCNC(=N)N)NC(=O)[C@H](CSSCc1ccc(C2(C(F)(F)F)N=N2)cc1)NC(=O)[C@@H](NC(=O)[C@H](CC(=O)O)NC(=O)[C@H](CCC(=O)O)NC(C)=O)[C@@H](C)CC)C(=O)N[C@@H](C)C(=O)N[C@@H](CCCNC(=N)N)C(=O)N[C@@H](Cc1c[nH]cn1)C(=O)N[C@@H](CC(C)C)C(=O)N[C@@H](C)C(=O)N[C@@H](CCC(N)=O)C(=O)N[C@H](C(=O)NCC(=O)N[C@@H](CC(=O)O)C(=O)N[C@@H](CO)C(=O)N[C@@H](CCSC)C(=O)N[C@@H](CC(=O)O)C(=O)N[C@@H](CCCNC(=N)N)C(=O)N[C@@H](CO)C(=O)N[C@H](C(=O)N[C@@H](Cc1c[nH]c2ccccc12)C(N)=O)[C@@H](C)CC)C(C)C [MTS-TMFD labelled I83C] (Ac-EDIC(X1)RNIARHLAQVGDSMDRSIW-NH2) | 51 ± 6
3 | MTS-TMFD labelled V93C: single Cys variant V93C of BID80–102 tagged with MTS-TFMD (EDIIRNIARHLAQC(MTS‑TFMD)GDSMDRSIP; UniProt P55957 80-102, looked up, fragment V93C) | 40 ± 8
4 | CC[C@H](C)[C@H](NC(=O)[C@H](CC(N)=O)NC(=O)[C@H](CCCNC(=N)N)NC(=O)[C@H](CSSCCC1(C)N=N1)NC(=O)[C@@H](NC(=O)[C@H](CC(=O)O)NC(=O)[C@H](CCC(=O)O)NC(C)=O)[C@@H](C)CC)C(=O)N[C@@H](C)C(=O)N[C@@H](CCCNC(=N)N)C(=O)N[C@@H](Cc1c[nH]cn1)C(=O)N[C@@H](CC(C)C)C(=O)N[C@@H](C)C(=O)N[C@@H](CCC(N)=O)C(=O)N[C@H](C(=O)NCC(=O)N[C@@H](CC(=O)O)C(=O)N[C@@H](CO)C(=O)N[C@@H](CCSC)C(=O)N[C@@H](CC(=O)O)C(=O)N[C@@H](CCCNC(=N)N)C(=O)N[C@@H](CO)C(=O)N[C@H](C(=O)N[C@@H](Cc1c[nH]c2ccccc12)C(N)=O)[C@@H](C)CC)C(C)C [MTS-diazirine labelled I83C] (Ac-EDIC(X2)RNIARHLAQVGDSMDRSIW-NH2) | 19 ± 2
5 | CC[C@H](C)[C@H](NC(=O)[C@H](CC(N)=O)NC(=O)[C@H](CCCNC(=N)N)NC(=O)[C@@H](NC(=O)[C@@H](NC(=O)[C@H](CC(=O)O)NC(=O)[C@H](CCC(=O)O)NC(C)=O)[C@@H](C)CC)[C@@H](C)CC)C(=O)N[C@@H](C)C(=O)N[C@@H](CCCNC(=N)N)C(=O)N[C@@H](Cc1c[nH]cn1)C(=O)N[C@@H](CC(C)C)C(=O)N[C@@H](C)C(=O)N[C@@H](CCC(N)=O)C(=O)N[C@H](C(=O)NCC(=O)N[C@@H](CC(=O)O)C(=O)N[C@@H](CO)C(=O)N[C@@H](CSSCc1ccc(C2(C(F)(F)F)N=N2)cc1)C(=O)N[C@@H](CC(=O)O)C(=O)N[C@@H](CCCNC(=N)N)C(=O)N[C@@H](CO)C(=O)N[C@H](C(=O)N[C@@H](Cc1c[nH]c2ccccc12)C(N)=O)[C@@H](C)CC)C(C)C [MTS-TMFD labelled M97C] (Ac-EDIIRNIARHLAQVGDSC(X1)DRSIW-NH2) | 26 ± 1
6 | CC[C@H](C)[C@H](NC(=O)[C@H](CC(N)=O)NC(=O)[C@H](CCCNC(=N)N)NC(=O)[C@@H](NC(=O)[C@@H](NC(=O)[C@H](CC(=O)O)NC(=O)[C@H](CCC(=O)O)NC(C)=O)[C@@H](C)CC)[C@@H](C)CC)C(=O)N[C@@H](C)C(=O)N[C@@H](CCCNC(=N)N)C(=O)N[C@@H](Cc1c[nH]cn1)C(=O)N[C@@H](CC(C)C)C(=O)N[C@@H](C)C(=O)N[C@@H](CCC(N)=O)C(=O)N[C@H](C(=O)NCC(=O)N[C@@H](CC(=O)O)C(=O)N[C@@H](CO)C(=O)N[C@@H](CSSCCC1(C)N=N1)C(=O)N[C@@H](CC(=O)O)C(=O)N[C@@H](CCCNC(=N)N)C(=O)N[C@@H](CO)C(=O)N[C@H](C(=O)N[C@@H](Cc1c[nH]c2ccccc12)C(N)=O)[C@@H](C)CC)C(C)C [MTS-diazirine labelled M97C] (Ac-EDIIRNIARHLAQVGDSC(X2)DRSIW-NH2) | 41 ± 6
7 | CC[C@H](C)[C@H](NC(=O)[C@H](CO)NC(=O)[C@H](CCCNC(=N)N)NC(=O)[C@H](CC(=O)O)NC(=O)[C@H](CCSC)NC(=O)[C@H](CO)NC(=O)[C@H](CC(=O)O)NC(=O)CNC(=O)[C@@H](NC(=O)[C@H](CCC(N)=O)NC(=O)[C@H](C)NC(=O)[C@H](CC(C)C)NC(=O)[C@H](Cc1c[nH]cn1)NC(=O)[C@H](CCCNC(=N)N)NC(=O)[C@H](C)NC(=O)[C@H](CSSCc1ccc(C2(C(F)(F)F)N=N2)cc1)NC(=O)[C@H](CC(N)=O)NC(=O)[C@H](CCCNC(=N)N)NC(=O)[C@@H](NC(=O)[C@@H](NC(=O)[C@H](CC(=O)O)NC(=O)[C@H](CCC(=O)O)NC(C)=O)[C@@H](C)CC)[C@@H](C)CC)C(C)C)C(=O)N[C@@H](Cc1c[nH]c2ccccc12)C(N)=O [MTS-TMFD labelled I86C] (Ac-EDIIRNC(X1)ARHLAQVGDSMDRSIW-NH2) | 53 ± 1

Biological target: T1, MCL-1
Experiment: FP
Settings: not given

Row | Molecule | EC50 [nM]
8 | EDIIRNC(MTS‑diazirine)ARHLAQVGDSMDRSIP [BID_(80-102) I86C tagged with MTS-diazirine] | 5510
9 | EDIIRNIARHLAQVGDSC(MTS‑TFMD)DRSIP [BID_(80-102) M97C tagged with MTS-TFMD] | 255
10 | EDIIRNIARHLAQVGDSC(MTS‑diazirine)DRSIP [BID_(80-102) M97C tagged with MTS-diazirine] | 422
11 | EDIC(MTS‑diazirine)RNIARHLAQVGDSMDRSIP [BID_(80-102) I83C tagged with MTS-diazirine] | 406
12 | EDIIRNIARHLAQVGDSMDRSIP (Limits not printed in the main text (supplement); 172-327 is the usual soluble MCL-1 construct for BH3 assays, close to the PDB 2KBW construct) [WT BID_(80-102)] | 460
13 | EDIIRNIARHLAQC(MTS‑diazirine)GDSMDRSIP [BID_(80-102) V93C tagged with MTS-diazirine] | 8750
14 | EDIC(MTS‑TFMD)RNIARHLAQVGDSMDRSIP [BID_(80-102) I83C tagged with MTS-TFMD] | 338
15 | EDIIRNIARHLAQVGDSMDRCIP (Cys100 disulfide-linked to MTS-diazirine (alkyl diazirine) tag; synthetic peptide, termini not stated in main text Limits not printed in the main text (supplement); 172-327 is the usual soluble MCL-1 construct for BH3 assays, close to the PDB 2KBW construct) [BID_(80-102) S100C tagged with MTS-diazirine] | 360
16 | EDIIRNIARHLAQVGDSMDRCIP (Cys100 disulfide-linked to MTS-TFMD (trifluoromethyl phenyl diazirine) tag; synthetic peptide, termini not stated in main text Limits not printed in the main text (supplement); 172-327 is the usual soluble MCL-1 construct for BH3 assays, close to the PDB 2KBW construct) [BID_(80-102) S100C tagged with MTS-TFMD] | 287
17 | EDIIRNC(MTS‑TFMD)ARHLAQVGDSMDRSIP [BID_(80-102) I86C tagged with MTS-TFMD] | 1410
